In patent US8623997B2, “Variant Hhip1 protein and methods and uses thereof” (Curis, Inc., priority 2008, dated 2014):

Molecular target: T1, biotinylated-ShhN-Cys (Homo sapiens, UniProt Q15465)
T1 construct: ShhN-Cys (residues 24-197); His6 (N); made in house; host or cells: E. coli Rosetta 2
Assay: Bio-layer interferometry (Octet) binding kinetics of Hhip1β12 variants to Shh
Settings: for Kd / koff × 10^−4 / kon × 10^3: 1:1 binding model, n.d stands for no binding detected; for Shh binding of Hhip1β12 mutants (in words): bio-layer interferometry, compared with WT Hhip1β12
Description: The binding kinetics of the Hhip1β12 fragments as well as Hhip1β12 mutants were measured by bio-layer interferometry in the presence or absence of 10 mM EDTA on an Octet (Fortébio). Streptavidin high binding FA biosensors were loaded with biotinylated-ShhN-Cys in kinetic buffer (Fortébio). The loaded biosensors were washed and transferred to wells containing Hhip1β12 protein at concentrations of 1.2, 1.0, 0.8 and 0.6 μM in kinetic buffer. Hhip1β12 association and dissociation was measured for 30 and 20 min, respectively. Kinetic parameters (kon and koff) and affinities (KD) were calculated from a non-linear fit of the data based on a 1:1 binding model between Hhip1β12 and Shh using the Octet software. Multiple independent measurements were performed.
In order to assess the contribution of residues in the Hhip1 L1, L2 and L3 loops for binding to Shh, a series of single alanine Hipβ12 mutants were made using the QuickChange DNA mutagenesis kit (Stratagene) using the manufacturer's protocol, and their affinity for Shh was measured by bio-layer interferometry (as described in Example 2B). These mutations included Hhip1β12 mutants 1312A, E381A, M382A, D383A, D378A, T418A, Q420A, E380A, D387A and ΔL2.

| Molecule | Kd [nM] | koff × 10^−4 | kon × 10^3 | Shh binding of Hhip1β12 mutants (in words) | Shh binding of Hhip1β12 mutants (in words) (listed as E380) |
| --- | --- | --- | --- | --- | --- |
| T418A: L3 loop single alanine variant made in the Hhip1β12 construct (protein) SNYLDQMEEYDKVEEISRKHKHNCFCIQEVVSGLRQPVGALHSGDGSQRLFILEKEGYVKILTPEGEIFKEPYLDIHKLVQSGIKGGDERGLLSLAFHPNYKKNGKLYVSYTTNQERWAIGPHDHILRVVEYTVSRKNPHQVDLRTARVFLEVAELHRKHLGGQLLFGPDGFLYIILGDGMITLDDMEEMDGLSDFTGSVLRLDVDTDMCNVPYSIPRSNPHFNSANQPPEVFAHGLHDPGRCAVDRHPTDININLTILCSDSNGKNRSSARILQIIKGKDYESEPSLLEFKPFSNGPLVGGFVYRGCQSERLYGSYVFGDRNGNFLTLQQSPVTKQWQEKPLCLGTSGSCRGYFSGHILGFGEDELGEVYILSSSKSMTQTHNGKLYKIVDPKRPLMPEECRATVQPAQTLTSECSRLCRNGYCTPTGKCCCSPGWEGDFCRTAKCEPACRHGGVCVRPNKCLCKKGYLGPQCEHHHHHH | 270 | 9.0 × 10^−4 [s^−1] | 3.4 × 10^3 [M^−1 × s^−1] | little effect on Shh | – |
| D387A: L2 loop single alanine variant made in the Hhip1β12 construct (protein) SNYLDQMEEYDKVEEISRKHKHNCFCIQEVVSGLRQPVGALHSGDGSQRLFILEKEGYVKILTPEGEIFKEPYLDIHKLVQSGIKGGDERGLLSLAFHPNYKKNGKLYVSYTTNQERWAIGPHDHILRVVEYTVSRKNPHQVDLRTARVFLEVAELHRKHLGGQLLFGPDGFLYIILGDGMITLDDMEEMDGLSAFTGSVLRLDVDTDMCNVPYSIPRSNPHFNSTNQPPEVFAHGLHDPGRCAVDRHPTDININLTILCSDSNGKNRSSARILQIIKGKDYESEPSLLEFKPFSNGPLVGGFVYRGCQSERLYGSYVFGDRNGNFLTLQQSPVTKQWQEKPLCLGTSGSCRGYFSGHILGFGEDELGEVYILSSSKSMTQTHNGKLYKIVDPKRPLMPEECRATVQPAQTLTSECSRLCRNGYCTPTGKCCCSPGWEGDFCRTAKCEPACRHGGVCVRPNKCLCKKGYLGPQCEHHHHHH | – | – | – | abolished binding to Shh | – |
| E381A: L2 loop single alanine variant made in the Hhip1β12 construct (protein) SNYLDQMEEYDKVEEISRKHKHNCFCIQEVVSGLRQPVGALHSGDGSQRLFILEKEGYVKILTPEGEIFKEPYLDIHKLVQSGIKGGDERGLLSLAFHPNYKKNGKLYVSYTTNQERWAIGPHDHILRVVEYTVSRKNPHQVDLRTARVFLEVAELHRKHLGGQLLFGPDGFLYIILGDGMITLDDMEAMDGLSDFTGSVLRLDVDTDMCNVPYSIPRSNPHFNSTNQPPEVFAHGLHDPGRCAVDRHPTDININLTILCSDSNGKNRSSARILQIIKGKDYESEPSLLEFKPFSNGPLVGGFVYRGCQSERLYGSYVFGDRNGNFLTLQQSPVTKQWQEKPLCLGTSGSCRGYFSGHILGFGEDELGEVYILSSSKSMTQTHNGKLYKIVDPKRPLMPEECRATVQPAQTLTSECSRLCRNGYCTPTGKCCCSPGWEGDFCRTAKCEPACRHGGVCVRPNKCLCKKGYLGPQCEHHHHHH | 300 | 3.3 × 10^−4 [s^−1] | 1.1 × 10^3 [M^−1 × s^−1] | – | – |
| M382A: L2 loop single alanine variant made in the Hhip1β12 construct (protein) SNYLDQMEEYDKVEEISRKHKHNCFCIQEVVSGLRQPVGALHSGDGSQRLFILEKEGYVKILTPEGEIFKEPYLDIHKLVQSGIKGGDERGLLSLAFHPNYKKNGKLYVSYTTNQERWAIGPHDHILRVVEYTVSRKNPHQVDLRTARVFLEVAELHRKHLGGQLLFGPDGFLYIILGDGMITLDDMEEADGLSDFTGSVLRLDVDTDMCNVPYSIPRSNPHFNSTNQPPEVFAHGLHDPGRCAVDRHPTDININLTILCSDSNGKNRSSARILQIIKGKDYESEPSLLEFKPFSNGPLVGGFVYRGCQSERLYGSYVFGDRNGNFLTLQQSPVTKQWQEKPLCLGTSGSCRGYFSGHILGFGEDELGEVYILSSSKSMTQTHNGKLYKIVDPKRPLMPEECRATVQPAQTLTSECSRLCRNGYCTPTGKCCCSPGWEGDFCRTAKCEPACRHGGVCVRPNKCLCKKGYLGPQCEHHHHHH | – | – | – | abolished binding to Shh | – |
| E380A: L2 loop single alanine variant made in the Hhip1β12 construct (protein) SNYLDQMEEYDKVEEISRKHKHNCFCIQEVVSGLRQPVGALHSGDGSQRLFILEKEGYVKILTPEGEIFKEPYLDIHKLVQSGIKGGDERGLLSLAFHPNYKKNGKLYVSYTTNQERWAIGPHDHILRVVEYTVSRKNPHQVDLRTARVFLEVAELHRKHLGGQLLFGPDGFLYIILGDGMITLDDMAEMDGLSDFTGSVLRLDVDTDMCNVPYSIPRSNPHFNSTNQPPEVFAHGLHDPGRCAVDRHPTDININLTILCSDSNGKNRSSARILQIIKGKDYESEPSLLEFKPFSNGPLVGGFVYRGCQSERLYGSYVFGDRNGNFLTLQQSPVTKQWQEKPLCLGTSGSCRGYFSGHILGFGEDELGEVYILSSSKSMTQTHNGKLYKIVDPKRPLMPEECRATVQPAQTLTSECSRLCRNGYCTPTGKCCCSPGWEGDFCRTAKCEPACRHGGVCVRPNKCLCKKGYLGPQCEHHHHHH | – | – | – | minor to moderate effects on Shh binding | abolished binding to Shh |
| Q420A: L3 loop single alanine variant made in the Hhip1β12 construct (protein) SNYLDQMEEYDKVEEISRKHKHNCFCIQEVVSGLRQPVGALHSGDGSQRLFILEKEGYVKILTPEGEIFKEPYLDIHKLVQSGIKGGDERGLLSLAFHPNYKKNGKLYVSYTTNQERWAIGPHDHILRVVEYTVSRKNPHQVDLRTARVFLEVAELHRKHLGGQLLFGPDGFLYIILGDGMITLDDMEEMDGLSDFTGSVLRLDVDTDMCNVPYSIPRSNPHFNSTNAPPEVFAHGLHDPGRCAVDRHPTDININLTILCSDSNGKNRSSARILQIIKGKDYESEPSLLEFKPFSNGPLVGGFVYRGCQSERLYGSYVFGDRNGNFLTLQQSPVTKQWQEKPLCLGTSGSCRGYFSGHILGFGEDELGEVYILSSSKSMTQTHNGKLYKIVDPKRPLMPEECRATVQPAQTLTSECSRLCRNGYCTPTGKCCCSPGWEGDFCRTAKCEPACRHGGVCVRPNKCLCKKGYLGPQCEHHHHHH | 500 | 11.0 × 10^−4 [s^−1] | 2.1 × 10^3 [M^−1 × s^−1] | little effect on Shh | – |
| D378A: L2 loop single alanine variant made in the Hhip1β12 construct (protein) SNYLDQMEEYDKVEEISRKHKHNCFCIQEVVSGLRQPVGALHSGDGSQRLFILEKEGYVKILTPEGEIFKEPYLDIHKLVQSGIKGGDERGLLSLAFHPNYKKNGKLYVSYTTNQERWAIGPHDHILRVVEYTVSRKNPHQVDLRTARVFLEVAELHRKHLGGQLLFGPDGFLYIILGDGMITLDAMEEMDGLSDFTGSVLRLDVDTDMCNVPYSIPRSNPHFNSTNQPPEVFAHGLHDPGRCAVDRHPTDININLTILCSDSNGKNRSSARILQIIKGKDYESEPSLLEFKPFSNGPLVGGFVYRGCQSERLYGSYVFGDRNGNFLTLQQSPVTKQWQEKPLCLGTSGSCRGYFSGHILGFGEDELGEVYILSSSKSMTQTHNGKLYKIVDPKRPLMPEECRATVQPAQTLTSECSRLCRNGYCTPTGKCCCSPGWEGDFCRTAKCEPACRHGGVCVRPNKCLCKKGYLGPQCEHHHHHH | 2400 | 3.6 × 10^−4 [s^−1] | 0.15 × 10^3 [M^−1 × s^−1] | minor to moderate effects on Shh binding | – |
